The nature of this data set: Example 7 manufacture of ethyl (R)-4-cyano-3-hydroxybutyrate with HHDH cell lysate. It counts as biochemical. Particulars: 40° C., pH 7, 17 hours. The protocol:
To a 3-necked jacketed 3 L flask equipped with a mechanical stirrer and connected to an automatic titrater by a pH electrode and a feeding tube for addition of base, was charged H2O (1200 mL), NaCN (37.25 g) and NaH2PO4 (125 g) to bring the solution to pH 7. The water circulator was set to 40° C. After 10 minutes, halohydrin dehalogenase of SEQ ID NO: 32 as cell lysate (250 mL) was added. The reaction mixture was allowed to stir for 5 minutes. Using an addition funnel, ethyl (S)-4-chloro-3-hydroxybutyrate (45 g) was slowly added over 1 hour. The pH was maintained at 7 by the automatic titrater by the addition of 10 M NaOH (27 mL) over 17 hours. […] Celite™ (16 g) was added to the flask, which was then connected to a diaphragm pump, whose exhaust is bubbled into 5M NaOH (200 mL), to remove HCN. The mixture was heated to 60° C. under 100 mm Hg pressure. After 1 hour, a submerged air bubbler was added to the solution to aid the removal of the HCN. After 3 hours, an HCN detector indicated less than 5 ppm HCN in the off-gas. The mixture was allowed to cool to room temperature, then filtered through a Celite™ pad. […] Enantiomeric composition can be readily characterized by using the gas chromatography method described in Example 6, above, and using methods that are known in the art.

Here are results for one molecule from patent US8252554B2, “Halohydrin dehalogenases and related polynucleotides” (Codexis, Inc., priority 2003, dated 2012).

B1: SEQ ID NO: 32: native halohydrin dehalogenase from Agrobacterium radiobacter AD1 (hheC), expressed from SEQ ID NO. 31 (protein)
chain: MSTAIVTNVKHFGGMGSALRLSEAGHTVACHDESFKQKDELEAFAETYPQLKPMSEQEPAELIEAVTSAYGQVDVLVSNDIFAPEFQPIDKYAVEDYRGAVEALQIRPFALVNAVASQMKKRKSGHIIFITSATPFGPWKELSTYTSARAGACTLANALSKELGEYNIPVFAIGPNYLHSEDSPYFYPTEPWKTNPEHVAHVKKVTALQRLGTQKELGELVAFLASGSCDYLTGQVFWLAGGFPMIERWPGMPE
B1: the “conversion to product by gas chromatography” value is “complete conversion to product”.
